In patent publication US20040072743A1 (priority 2000, published 2004):

What was measured:
[1] = female, NMRI, mouse, in vivo, sc
[2] = female, NMRI, mouse, in vivo

Substance | subcutaneous bioavailability (AUC [s.c.adm]/AUC [i.v. adm])×100% [1] [%] | oral bioavailability (AUC [p.o. adm]/AUC [i.v. adm])×100% [2] [%]
H-KFFKFFKFFK-g.abu-PheGly-TTCTAACATTTA-NH2 [Compound VI] | 62 | 6
H-KFFKFFKFFK-achc-b.Ala-TTCTAACATTTA-NH2 [Compound V] | 68 | 9
H-KFFKFFKFFK-b.cypr-g.abu-ACTTTGTCGCCA-NH2 [Compound IV] | 78 | 24
H-KFFKFFKFFK-pfPhe-cha-TTCTAACATTTA-NH2 [Compound VII] | 69 | 54
